Test results published in patent publication US20260234738A1 (Regeneron, published 2026).
Residue numbers refer to the chain shown, from its start. Values joined by “and” are separate entries in the source; they are usually repeats but may differ in a detail not shown here. Identical values can stand only once.

B1: mAb10914 (antibody, V domains shown)
VH: EVQLVESGGGLVQPGGSLRLSCAASGLIVSRNYMIWVRQAPGKGLEWVSVIYSGGSTFYADSVKGRFTISRHNSKNTLYLQMNSLRAEDTAVYYCARDLGTGGMDVWGQGTTVTVSS
VL: DIQLTQSPSFLSASVGDRVTITCWASQGISSYLAWYQQKPGKAPKLLIYAASTLQSGVPSRFSGSGSGTEFTLTISSLQPEDFATYYCQQLNSYPLTFGGGTKVEIKR
B2: mAb10957 (antibody, V domains shown)
VH: B1 VH with L27V, I28T, R31S, I35S, H72D, Y79F, A87I, T101P, G102Y
VL: DIQLTQSPSFLSASVGDRVTITCRASQGISSYLAWYQQKPGKAPKLLIYAASTLQSGVPSRFSGSGSGTQFILTISSLQPEDFATYYCQQLNSYPGFTFGPGTKVDIKR
B3: mAb10956 (antibody, V domains shown)
VH: B1 VH with I28T, R31S, I35S, H72D, G100I, T101K, G102Y
VL: not shown
B4: mAb10936 (antibody, V domains shown)
VH: QVQLVESGGGVVQPGRSLRLSCAASGFTFRNYGMHWVRQAPGKGLEWVSVIWYDGSNRYYADSVKGRFTISRDTSKNTLYLQMNSLRAEDTAVYYCARDPPITGTTGGDAFDIWGQGTMVTVSS
VL: not shown
B5: mAb10930 (antibody, V domains shown)
VH: EVQLVESGGGLVQPGRSLRLSCAASGFTFDDYAMYWVRQAPGKGLEWVSGISWNSGSIGYADSVKGRFTISRDNAKNSLYLQMNSLRAADTALYYCAKDKDWNSRGYYYYGMDVWGQGTTVTVSS
VL: not shown
B6: mAb10939 (antibody, V domains shown)
VH: EVQLVESGGGLVQPGGSLRLSCAASGLTVSSNYMNWVRQVPGKGLEWVSVIYSGGSKFYVDSVKGRFTISRHNSKNTLYLQMNSLRPEDTAVYYCTRDAQYYGMDVWGQGTTVTVSS
VL: DIQMTQSPSSLSASVGDRVTITCRASQSISTYLHWYQQKPGEAPKLLIYAASSLQSGVPSRFSGSGSGTDFTLTISSLQPEDFATYYCQQSYSTPPEIFGQGTKLEIKR
B7: mAb10920 (antibody, V domains shown)
VH: QVQLVESGGGVVQPGRSLRLSCAASGFTFSYYGMHWVRQAPGKGLEWVAVIWYDGSNKFYADSVKGRFTISRDNSKNTLYLQMNSLRAEDTAVYYCAAARPGYYYGMDVWGQGTTVTVSS
VL: DIQMTQSPSSLSASVGDRVTITCRASQGISNYLAWFQQKPGKAPNSLIYAASSLQRGVPSKFSGSGSGTDFTLTISSLQPEDFATYYCQQYNSYPRTFGQGTKVEIKR
B8: mAb10915 (antibody, V domains shown)
VH: EVQLVESGGGLVQPGGSLRLSCAASGFTVSSNYMNWVRQAPGKGLEWVSVIYSGGSTFYADSVKGRFTISRHNSKNTLYLQMNSLRPEDTAVYYCARDLGGYFDYWGQGTLVTVSS
VL: not shown
B9: mAb10934 (antibody, V domains shown)
VH: not shown
VL: DIQMTQSPSSLSASVGDRVTITCQASQDIWNYINWYQQKPGKAPKLLIYDASNLKTGVPSRFSGSGSGTDFTFTISSLQPEDIATYYCQQHDDLPPTFGQGTKVEIKR
B10: mAb10935 (antibody, V domains shown)
VH: EVQLVESGGGLVQPGGSLRLSCAASGFTVSSNYMSWVRQAPGKGLEWVSLIYSGGSTYYADSVKGRFTISRHNSKNTLYLQMNSLRSEDTAVYYCARVPLGDYYYGMDVWGQGTTVTVSS
VL: B9 VL with W30N, N31K, I33L, K55E, H91S, D93N, P96L, Q100G
B11: mAb10955 (antibody, V domains shown)
VH: EVQLVESGGGLVQPGGSLRVSCAASGFTVSRNYMSWVRQAPGKGLEWVSVIYSGGSTFYADSVKGRFTISRDNSKNTLYLQMNSLRAEDTAIYYCARYIPRFDPWGQGTLVTVSS
VL: B9 VL with W30S, I33L, Y36F, K42R, K55E, H91Y, D93N, P96I, K103R, V104L
B12: mAb10938 (antibody, V domains shown)
VH: EVQLVESGGGLVQPGGSLRLSCAVSGFTVSSNYMSWVRQAPGKGLEWVSLIYSGGSTFYADSVKGRFTISRHNSKNTLYLQMNSLRAEDTAVYYCAREGGYSYDYNYWGQGTLVTVSS
VL: B9 VL with W30R, I33L, K55E, S65I, H91Y, D93N, P96I, K103R, V104L
B13: mAb10954 (antibody, V domains shown)
VH: EVQLVESGGGLVQPGGSLRLSCAASGITVSSNYMSWVRQAPGKGLEWVSLIYSGGSTYYADSVKGRFTISRDNSKNTLYLQMNSLRVEDTAVYYCARDHGMAAAGYNYWGQGTLVTVSS
VL: B9 VL with W30N, N31K, I33L, K55E, S76N, I83F, Y87F, H91Y, D93N, T97A
B14: mAb10913 (antibody, V domains shown)
VH: EVQLVESGGGLVQPGGSLRLSCAASGFTFRNYEMNWVRQAPGKGLEWVSYITSSGSTMYYADSVKGRFTISRDNAKNSLYLQMNSLRAEDTAVYYCARDGFYYYYAMDVWGQGTTVTVSS
VL: QSVLTQPPSVSAAPGQKVTISCSGSSSNIGNNYVSWYQQLPGTAPKLLIYDNNKRPSGIPDRFSGSKSGTSATLGITGLQTGDEADYYCGTWDSSLSVGRVFGTGTKVTVLG
B15: mAb10965 (antibody, V domains shown)
VH: EVQLVESGGGLIQPGGSLRLSCAASVFTVSYNYMSWVRQAPGKGLEWVSVIYSGGSTYYADSVKGRFTISRDNSKNTLYLQMNSLRAEDTAVYYCARALPGWGGSFEYFDYWGQGTLVTVSS
VL: not shown
B16: mAb10923 (antibody, V domains shown)
VH: QVQLVQSGAEVKKPGASVKVSCKASGYTFINYYIHWVRQAPGQGLEWMGWINPNSGGTNYAQKFQGRVTMTRDTSISTAYMELSRLRSDDTAVYYCAIITIFGVVTWFDPWGQGTLVTVSS
VL: not shown
B17: mAb10921 (antibody, V domains shown)
VH: EVQLVESGGGLVQPGGSLRLSCAASGITVSSNYMSWVRQAPGKGLEWVSVIYSGGSTFYADSVKGRFTISRHNSKNTLYLQMNSLRAEDTAVYYCARERNFDAFDIWGQGTMVTVSS
VL: B2 VL with L4M, F10S, L11V, Y32W, T53S, Q70D, I72T, L91A, Y94F, G96L
B18: mAb10964 (antibody, V domains shown)
VH: QVQLQESGPGLVKPSETLSLTCTVSGGSINNYYWIWIRQPPGKGLEWIGYIYHSGSTNYNPSLKSRVTISVDTSKNQFSLKVSSVTAADTAVYYCANMVRGVYEDDYWGQGTLVTVSS
VL: DIQMTQSPSSLSASVGDRVTITCRASQSISNYLNWYQQKPGKAPKLLIFAASSLRSGVPSRFSGSGSGTDFTLTISSLHPEDFATYYCQQNYNTPLTFGPGTKVDIKR
B19: mAb10937 (antibody, V domains shown)
VH: QITLKESGPTLVKPTQTLTLTCTFSGFSLSTNVVGVGWIRQPPGKALEWLALIYWNDDKRYSPSLKSRLTITKDTSKNQVVLTMTNMDPVDTATYYCAHGPTGDYFDYWGQGTLVTVSS
VL: not shown
B20: mAb10932 (antibody, V domains shown)
VH: EVQLVESGGGLVQSGGSLRLSCAASGLTVSSNYMSWVRQAPGKGLEWVSVIYSGGSTFYSDSVKGRFTISRHNSKNTLYLQMNSLRAEDTAVYYCARARGDAFDIWGQGTMVTVSS
VL: not shown

Target: SARS-COV-2 Spike protein receptor binding domain (amino acids Arg319-Phe541) expressed with the Fc p (SARS-CoV-2)

Binder | IC50
B1 | 0.98 nM
B2 | 0.169 nM
B3 | 0.185 nM
B4 | 0.0875 nM and 0.071 nM
B5 | 0.282 nM
B6 | 0.175 nM and 0.263 nM
B7 | 0.338 nM and 0.139 nM
B8 | 0.321 nM
B9 | 0.066 nM and 0.0597 nM
B10 | 0.102 nM and 0.0694 nM
B11 | 0.141 nM
B12 | 0.275 nM
B13 | 0.0711 nM
B14 | 0.217 nM
B15 | 0.213 nM
B16 | 0.149 nM and 0.184 nM
B17 | 0.433 nM and 0.507 nM
B18 | 0.0683 nM and 0.0625 nM
B19 | 0.0649 nM
B20 | 0.373 nM
